Data on 21 molecules can be found in patent publication US20210130436A1.

B1: PD-L2 H15Q IgV-Fc (Fc fusion, not shown: a dimerising Fc or GST)
chain: LFTVTVPKELYIIEQGSNVTLECNFDTGSHVNLGAITASLQKVENDTSPHRERATLLEEQLPLGKASFHIPQVQVRDEGQYQCIIIYGVAWDYKYLTLKVKA
B2: PD-L2 H15Q/S67L/I86T IgV-Fc (Fc fusion, not shown: a dimerising Fc or GST)
chain: B1 chain with S67L, I86T
B3: PD-L2 H15Q/T47A/Q72H/R76G/I86T IgV-Fc (Fc fusion, not shown: a dimerising Fc or GST)
chain: B1 chain with T47A, Q72H, R76G, I86T
B4: PD-L2 I13V/H15Q/Q82R/V89D IgV-Fc (Fc fusion, not shown: a dimerising Fc or GST)
chain: B1 chain with I13V, Q82R, V89D
B5: PD-L2 Q82R/V89D IgV-Fc (Fc fusion, not shown: a dimerising Fc or GST)
chain: B1 chain with Q15H, Q82R, V89D
B6: PD-L2 H15Q/T47A IgV-Fc (Fc fusion, not shown: a dimerising Fc or GST)
chain: B1 chain with T47A
B7: PD-L2 H15Q/V31M/S67L/Q82R/V89D IgV-Fc (Fc fusion, not shown: a dimerising Fc or GST)
chain: B1 chain with V31M, S67L, Q82R, V89D
B8: PD-L2 S67L/I86T IgV-Fc (Fc fusion, not shown: a dimerising Fc or GST)
chain: B1 chain with Q15H, S67L, I86T
B9: PD-L2 S67L/V89D IgV-Fc (Fc fusion, not shown: a dimerising Fc or GST)
chain: B1 chain with Q15H, S67L, V89D
B10: PD-L2 I13V/S39I/E44D/Q82R/V89D IgV-Fc (Fc fusion, not shown: a dimerising Fc or GST)
chain: B1 chain with I13V, Q15H, S39I, E44D, Q82R, V89D
B11: PD-L2 G28V/Q72H/R76G/I86T IgV-Fc (Fc fusion, not shown: a dimerising Fc or GST)
chain: B1 chain with Q15H, G28V, Q72H, R76G, I86T
B12: PD-L2 H15Q/S67L/Q72H/R76G/V89D IgV-Fc (Fc fusion, not shown: a dimerising Fc or GST)
chain: B1 chain with S67L, Q72H, R76G, V89D
B13: PD-L2 H15Q/S39I/S67L/V89D IgV-Fc (Fc fusion, not shown: a dimerising Fc or GST)
chain: B1 chain with S39I, S67L, V89D
B14: PD-L2 I13V/H15Q/V89D IgV-Fc (Fc fusion, not shown: a dimerising Fc or GST)
chain: B1 chain with I13V, V89D
B15: PD-L2 I13V/H15Q/S39I/E44D/S67L IgV-Fc (Fc fusion, not shown: a dimerising Fc or GST)
chain: B1 chain with I13V, S39I, E44D, S67L
B16: PD-L2 I13V/S67L/V89D IgV-Fc (Fc fusion, not shown: a dimerising Fc or GST)
chain: B1 chain with I13V, Q15H, S67L, V89D
B17: PD-L2 N32D/S67L/V89D IgV-Fc (Fc fusion, not shown: a dimerising Fc or GST)
chain: B1 chain with Q15H, N32D, S67L, V89D
B18: PD-L2 V89D IgV-Fc (Fc fusion, not shown: a dimerising Fc or GST)
chain: B1 chain with Q15H, V89D
B19: PD-L2 E44D/V89D/W91R IgV-Fc (Fc fusion, not shown: a dimerising Fc or GST)
chain: B1 chain with Q15H, E44D, V89D, W91R
B20: PD-L2 H15Q/Q72H/Q74R/R76G/I86T IgV-Fc (Fc fusion, not shown: a dimerising Fc or GST)
chain: B1 chain with Q72H, Q74R, R76G, I86T
B21: PD-L2 H15Q/Q82R/V89D IgV-Fc (Fc fusion, not shown: a dimerising Fc or GST)
chain: B1 chain with Q82R, V89D

Where a chain is given by its changes, count along the chain named. Names may count otherwise.

The target in the experiment is PD-1 (PDCD1) (Homo sapiens (Human)) (UniProt Q15116). The experiment can be described thus: cell-based or functional assay.
Sequence of PD-1 (PDCD1) (Homo sapiens (Human)) (Q15116 21-288): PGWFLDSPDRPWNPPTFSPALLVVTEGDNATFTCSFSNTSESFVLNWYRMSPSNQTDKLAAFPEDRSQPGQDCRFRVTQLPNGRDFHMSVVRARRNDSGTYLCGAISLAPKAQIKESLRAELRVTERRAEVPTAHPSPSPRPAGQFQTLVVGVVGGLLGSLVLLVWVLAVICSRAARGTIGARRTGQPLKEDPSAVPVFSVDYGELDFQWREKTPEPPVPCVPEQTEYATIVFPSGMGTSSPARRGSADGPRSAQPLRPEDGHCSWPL
In the case of B1, the IFN gamma levels pg/mL (MLR) is 1820 pg/mL. The figure for B2 is 1030 pg/mL; for B3 it is 1600 pg/mL. B4: the IFN gamma levels pg/mL (MLR) was 1600 pg/mL. In the case of B5, the IFN gamma levels pg/mL (MLR) stood at 1620 pg/mL. As to B6, the IFN gamma levels pg/mL (MLR) is 1640 pg/mL. Regarding B7, the IFN gamma levels pg/mL (MLR) turned out to be 1210 pg/mL. For B8, the IFN gamma levels pg/mL (MLR) was 1020 pg/mL. The figure for B9 is 1230 pg/mL; for B10 it is 936 pg/mL. Molecule B11 registered an IFN gamma levels pg/mL (MLR) of 1780 pg/mL. The figure for B12 is 1060 pg/mL; for B13 it is 1230 pg/mL; for B14 it is 1120 pg/mL. As for B15, the IFN gamma levels pg/mL (MLR) amounted to 1260 pg/mL. The molecule B16 came in with an IFN gamma levels pg/mL (MLR) of 868 pg/mL. Regarding B17, the IFN gamma levels pg/mL (MLR) stood at 1190 pg/mL.

The molecule B18 returned an IFN gamma levels pg/mL (MLR) of 1170 pg/mL. The figure for B19 is 1560 pg/mL. Turning to B20, the IFN gamma levels pg/mL (MLR) was determined as 934 pg/mL. The figure for B21 is 1080 pg/mL.
